# Experimental data as given in patent US11072647B2, “TGF-receptor II isoform, fusion peptide, methods of treatment and methods in vitro” (Onsejo Nacional DE Investigation Cientiticay Tecnica, priority 2013, dated 2021).
# Tested on: CPFX-treated juvenile rats
# Conditions: rat, in vivo
# Method: Thus, the effect of the TβII-SE isoform was analyzed either in CPFX-treated juvenile rats (24 days old) or untreated rats, by intra-articular injections of lentiviral vectors encoding a recombinant protein of the codon-optimized (co) TβRII-SE fused to the constant fragment (Fc) of the human immunoglobulin 1 (IgG1) (Lt.coTβRII-SE/Fc) or the enhanced green fluorescent protein (Lt.eGFP).
# Male 24-day-old Wistar rats were housed under controlled conditions at 21±1° C. with 50%±5% relative humidity and a constant light-dark schedule (light, 8 a.m. to 8 p.m.). Food and tap water was provided ad libitum. The rats received ciprofloxacin hydrochloride on day 24 by oral administration of 200 mg/kg of body weight during 10 days. The animals were examined for clinical abnormalities including motility alterations and weighted during the treatment period.
# On day 14 after ciprofloxacin treatment, 50 μl viral vectors were injected intra-articularly with either Lt.coTBRII-SE/Fc (2.35×10^6 transducing Units, TU) or Lt.eGFP (6×10^6 TU). Control animals without ciprofloxacin were treated in the same manner.
substance,measurement,value
"coTβRII-SE/Fc: fusion peptide of codon-optimized TβRII-SE and the human IgG1 Fc region, SEQ ID No. 6",X-ray images of knees,radiolucent images with irregular borders in the femoral condyle
